Ends that are not written are not given here. norbornene = norbornene on aminohexanoic acid N-terminal cap, polymerised by ROMP; Ahx = NCCCCCC(=O)O
Assays:
[1] = tested on: PC-3 prostate cancer cells; experiment: PC-3 cell viability / toxicity (CellTiter-Glo); format: cell-based; conditions: PC-3, 72 hours treatment, FIG. 2D; read-out: IC50 (concentration of peptide which exhibited 50% cell viability for PC-3)
Protocol: (§1) Cell Culture: PC-3, PC-12, A549 cells were obtained from ATCC; Mouse MycCaP cells were the kind gift of Charles Sawyers (Memorial Sloan-Kettering Cancer Centre). All cells were authenticated and tested as mycoplasma-free. PC-3 and A549 cells were grown in F12K (Gibco) medium; MycCaP cells in DMEM medium (Gibco), all supplemented with 10% heat-inactivated fetal bovine serum (FBS, Gibco). PC-12 cells were grown in F-12K medium (ATCC) with 5% heat-inactivated FBS and 10% heat-inactivated horse serum (Thermo). All cells were cultured in 1% Penicillin-Streptomycin (10,000U/ml, Life Technologies) and 5% CO2 in a humidified incubator at 37° C.
(§2) Cell Proliferation Assays: Cell viability was estimated using the CellTiter-Glo® Luminescent Cell Viability Assay (Promega). […] After 3 to 5 days following the treatment, CellTiter-Glo reagent was added mixed 1:1 vol/vol with fresh media, plates incubated for 10 minutes on a shaking rotator followed by 10 minutes without shaking at room temperature (protected from light using aluminum foil) and luminescence was measured using plate reader (Perkin Elmer Victor 3V).
This example evaluates the toxicity of Myc-targeting PLPs in the PC-3 cancer cell line. • Example 3.1—Generation of Block and Statistical Copolymers. […] Cellular viability was assessed via the Cell Prolferation Assays protocol provided above. • Example 3.2—Results. […]

MYC T58A = target: T1, MYC T58A (Homo sapiens, UniProt P01106, T73A); experiment: Western blot of MYC T58A in PC-3 MYC^T58A cells; format: cell-based; conditions: 6 h; 2.5 and 5 μM HYDRAC, FIG. 31C
T1 construct: expressed in transfected cells
T1 sequence (P01106 16-454 T73A): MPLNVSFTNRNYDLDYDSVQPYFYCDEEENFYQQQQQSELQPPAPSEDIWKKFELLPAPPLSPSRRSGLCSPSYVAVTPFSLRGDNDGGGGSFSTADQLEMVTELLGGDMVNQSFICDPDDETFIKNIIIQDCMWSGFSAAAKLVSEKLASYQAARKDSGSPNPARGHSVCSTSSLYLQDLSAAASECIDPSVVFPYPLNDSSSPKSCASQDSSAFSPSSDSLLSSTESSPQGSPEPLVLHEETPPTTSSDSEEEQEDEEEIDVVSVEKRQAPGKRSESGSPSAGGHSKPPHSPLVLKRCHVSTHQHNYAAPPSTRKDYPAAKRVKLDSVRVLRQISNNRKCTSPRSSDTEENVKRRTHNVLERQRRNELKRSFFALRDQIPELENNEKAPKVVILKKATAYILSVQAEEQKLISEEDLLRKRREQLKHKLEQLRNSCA
Protocol: Western BlotAnalysis: Cells were lysed in RIPA (Sigma) lysis buffer containing 1×Halt™ Protease and Phosphatase Inhibitor Cocktail (ThermoFisher). Protein concentration was measured by Bio-Rad Bradford reagent. Protein samples were prepared by addition of 4×Laemmli Sample buffer (Bio-Rad) and 2-mercaptoethanol (Bio-Rad) and resolved on 4-12% SDS-PAGE (Sodium dodecyl sulfate-polyacrylamide) gels, which were subsequently transferred to PVDF membranes (Bio-Rad) using Trans-Blot Turbo transfer buffer (Bio-Rad) and a Trans-Blot Turbo Transfer System (Bio-Rad). Membranes were blocked for 1 h at room temperature with 5% blotting-grade blocker non-fat dry milk (Bio-Rad), followed by overnight 4° C. incubation with the appropriate primary antibody and 1 h room temperature incubation with an anti-rabbit or anti-mouse IgG (H+L)-HRP conjugate (Bio-Rad) secondary antibody. Blots were imaged using Supersignal West Femto Maximum Sensitivity Substrate detection system (Thermo) and the ChemiDoc Imaging System (Bio-Rad). The following primary antibodies were used: c-Myc (Y69) (Abcam #ab32072), Streptavidin-HRP (PerkinElmer NEL750), GAPDH (Cell Signaling #3683) and Actin (Cell Signaling #5125). Quantification analyses were performed by Biorad ChemiDoc Imager and Bio-Rad Image Lab software. […]

[2] = tested on: PC-12 Pheochromocytoma (which lack the Myc dimerization partner Max) cell lines; experiment: PC-12 cell viability; format: cell-based; conditions: treated for 3 days, FIG. 5A
Protocol: as §1, §2
(§3) This example provides data supporting toxicity of cancer cells in vitro after treatment with Myc-targeted PLPs. […] Cells were treated with PLP 5.2 for 3 days and cellular viability was recorded. […]

[3] = target: T2, Myc protein from PC-3 cell lysates (Homo sapiens, UniProt P01106); experiment: In vitro pull down assay with biotin-terminated PLPs; format: binding; conditions: PC-3 cell lysate, 10 μM or 2 μM biotinylated PLPs, FIG. 5B
T2 construct: Degradation of endogenous Myc protein in PC-3 cells was explored; endogenous in cells; host or cells: PC-3
T2 sequence (P01106 whole entry): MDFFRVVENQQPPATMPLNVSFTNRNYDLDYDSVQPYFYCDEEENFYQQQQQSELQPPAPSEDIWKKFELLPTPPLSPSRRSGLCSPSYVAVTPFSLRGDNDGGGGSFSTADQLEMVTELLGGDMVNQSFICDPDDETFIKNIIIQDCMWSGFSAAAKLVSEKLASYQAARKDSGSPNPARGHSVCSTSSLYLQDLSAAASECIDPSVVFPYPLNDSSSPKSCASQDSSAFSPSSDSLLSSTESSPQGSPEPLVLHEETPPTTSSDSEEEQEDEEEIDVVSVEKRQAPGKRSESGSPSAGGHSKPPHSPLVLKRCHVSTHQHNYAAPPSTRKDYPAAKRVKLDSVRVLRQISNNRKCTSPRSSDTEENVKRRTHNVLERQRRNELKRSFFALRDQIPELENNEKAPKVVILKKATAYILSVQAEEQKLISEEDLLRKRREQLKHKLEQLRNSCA
Protocol: In vitro Pull Down Assay: To confirm PLP direct binding to endogenous Myc protein in cell lysate complex, biotin conjugated PLP was synthesized. Collected PC-3 cell pellet (2 million cells per pulldown condition) was suspended in 300 μL pulldown lysis buffer (pH 7.4 50 mM Tris-HCl, 150 mM NaCl, 1 mM EDTA, 0.1% IGEPAL nonionic detergent+1× Halt protease/phosphatase inhibitor cocktail) and lysed by repeat (3×) freeze-thawing in liquid nitrogen. The lysed cell pellets were spun at 4° C. for 15 minutes at 15,000 rpm on a Eppendorf 5424R centrifuge. The collected supernatants were pre-cleared with Pierce streptavidin magnetic beads (Thermo, 88817) for 1 hr at 4° C. For Examples 7 and 10, around 300 μg was applied to each sample and incubated with 5 μM of HYDRAC, scrambled HYDRAC, 10 μM of H1 homopolymer, scrambled H1 homopolymer or D-Biotin on a rotator over night at 4° C. […]
(§4) It has been previously reported (Blum et al., Kammeyer et al., and Berger et al., Mussel Adhesive-Inspired Proteomimetic Polymer, Journal of Am. Chem. Soc., 144, 4383-4392 (2022)) that peptide brush polymers with a DP around 15 synthesized in a similar manner maintain payload bioactivity and readily enter cells. […]
as §3

b-HLH-LZ domain of Myc = target: T3, b-HLH-LZ domain of Myc (Homo sapiens, UniProt P01106); experiment: Circular dichroism, dimerization with Myc b-HLH-LZ; format: binding; conditions: 1 μM PLP plus 5 μM bHlH
T3 construct: dimerize with either the b-HLH-LZ domain of Myc or full length Max
T3 sequence (P01106 368-454 limits assumed): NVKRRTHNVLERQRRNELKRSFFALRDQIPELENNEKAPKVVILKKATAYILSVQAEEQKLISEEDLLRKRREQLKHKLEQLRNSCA
Protocol: (§5) Circular Dichroism (CD) Spectroscopy: CD spectra were obtained on a JASCO J-815 spectrometer equipped with a Peltier sample holder for temperature control. Polymer samples were dissolved in buffered solvent to concentrations of approximately 1 μM, and placed into a 1 cm quartz cuvette (Hellma). Protein samples were measured at 5 μM. All samples were equilibrated at room temperature for at least thirty minutes prior to measurement, with mixtures (i.e. protein and polymer combinations) being generally equilibrated for 12 hours prior to measurement. Spectra were obtained using a scan speed of 10 nm/min, using a 1 nm bandwidth, 4 sec response time, and with three accumulations. Background spectra of solvent were obtained prior to measurement of the sample solutions, and subtracted from the sample spectra using JASCO Spectra Analysis. For melting experiments, the temperature was varied between 2° and 91° C. with steps of 1° C./min, while measuring the ellipticity at 222 nm with a 2 nm bandwidth.
as §4, with “cells. As such, initial HYDRAC designs revolved around this molecular size range.” for “cells.”

full length Max = full length Max (Homo sapiens, UniProt P61244); experiment: Circular dichroism, binding to Max; conditions: 1 μM PLP plus 5 μM Max
full length Max, sequence (P61244 whole entry): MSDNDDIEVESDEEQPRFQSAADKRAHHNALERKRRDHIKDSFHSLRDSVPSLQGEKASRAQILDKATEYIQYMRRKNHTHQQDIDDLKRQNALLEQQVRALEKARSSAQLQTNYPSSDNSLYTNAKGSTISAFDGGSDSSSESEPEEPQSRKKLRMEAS
Protocol: as §5
as §4, with “cells. As such, initial HYDRAC designs revolved around this molecular size range.” for “cells.”

[4] = target: endogenous Myc protein of PC-3 cells (in PC-3 cell lysate or in the cells) (UniProt P01106 1-454, limits assumed); experiment: cell-based or functional assay
endogenous Myc protein of PC-3 cells (in PC-3 cell lysate or in the cells), sequence (P01106 whole entry): as the sequence (P01106 whole entry) above

Molecule: NELKRAFAALRDQI-NH2 [unpolymerized H1 peptide, NELKRAFAALRDQI, reference compound]
- IC50 [1]: 700 µM

Molecule: Cn1nc(C(F)(F)F)cc1-c1ccc(OCc2ccc(Cl)cc2)c(-c2ccc(Cl)c(C(F)(F)F)c2)c1O [MYCi975]
- MYC^T58A protein level (MYC T58A): only minor changes in mutant MYC levels

Molecule: H17-stat-RRRG6 (peptide 1 NELKRAFAALRDQI) [PLP 5.2]
- IC50 [2]: 10.2 µM
- Myc pull down [3]: capable of direct endogenous binding to Myc protein

Molecule: H16-stat-RRRG7 (peptide 1 NELKRAFAALRDQI) [H1-R PLP]
- heterodimerization with Myc b-HLH-LZ (CD) (b-HLH-LZ domain of Myc): selective Myc/HYDRAC heterodimerization in the low micromolar range
- Max binding (CD) (full length Max): limited Max/HYDRAC binding

B1: PLP 5.2, H17-stat-RRRG6 (Example 9.4, FIG. 5A) (other)
peptide 1: {norbornene-Ahx}-NELKRAFAALRDQI-NH2
peptide 2: {norbornene-Ahx}-RRRG-NH2
modifications: also: polymerised through N-terminal norbornene by ROMP into polymer backbone, statistical copolymer of both peptides
- IC50 of PC-3 cell viability after 3 days of treatment (CTGlo) [4]: 0.49 µM
